Laboratory results as given in patent publication US20190256600A1 (ANAPTYSBIO, published 2019).

Key:
[1] = biological target: T1, full length native cynomolgus monkey PD-1 (on stably transfected CHO-K1 cells); native on cynomolgus monkey … (cynomolgus monkey, UniProt B0LAJ3 25-288); assay: flow cytometry on CHO-K1 cells stably expressing full length cynomolgus monkey PD-1; PE anti-human IgG4 detection
T1 construct: The same entry is used for the CHO-K1 transfectants and for PD-1 natively expressed on cynomolgus monkey PBMCs; also called cell-surface cynomolgus monkey PD-1
Description: (§1) Flow cytometry studies were performed with CHO-K1 cell line clones in which either full length native human or cynomolgus monkey PD-1 was stably transfected. An exemplary anti-PD-1 antibody (having heavy and light chains as set forth in SEQ ID NOs: 1 & 2, respectively) was diluted in 3-fold dilutions. Dilutions of exemplary antibody were added to human or cynomolgus monkey PD-1 expressing CHO-K1 cells (1E5 cells) and incubated on ice. Cells were washed twice and incubated on ice with PE-conjugated mouse anti-human IgG4 to detect antibody binding. Cells were washed and resuspended in the presence of propidium iodide to exclude dead cells and fixed and analyzed for fluorescence on a BD FACSArray instrument (BD Biosciences). Data were analyzed for median fluorescence intensity, graphed, and curves fitted for EC₅₀ value calculation in GraphPad Prism (GraphPad Software, Inc.) using a non-linear (sigmoidal) regression analysis.

[2] = biological target: T1, full length native cynomolgus monkey …; assay: receptor occupancy by flow cytometry on cynomolgus monkey PBMCs (CD3+/IgG4+ cells, PE-labeled anti-IgG4), pre-incubation with a dilution series of the antibody [panel Cynomolgus monkey]
Text: (§2) For these studies, PBMCs from healthy human donors or cynomolgus monkeys were used. Human PBMCs were isolated from buffy coats obtained from the Indiana Blood Center and cynomolgus monkey PBMCs were isolated from peripheral blood collected aseptically into sodium heparin obtained from Worldwide Primates, Inc. In both cases, separation was by Ficoll using Ficoll-Paque 1.077 and cryopreserved for later use.
(§3) On the day of the experiments, the cryopreserved cells were thawed and the cell concentration was adjusted to 2E6 cells/ml prior to resting overnight at 37° C. in a humidified CO₂ incubator. Cells were then pelleted and re-suspended in 1 ml of media and recounted. The cell concentration was adjusted to 4E5 cells/150 μl of media. Human AB Serum (40 μl/ml) was added to block Fc receptors. After centrifugation, the cells were incubated with exemplary anti-PD-1 antibody at 4° C. PBMCs were then washed three times before being split into two conditions. One set of cells was incubated with exemplary anti-PD-1 antibody and the other set with IgG4 for 30 minutes at 4° C. The PBMCs were then washed four times prior to being stained with FITC-labeled anti-CD3 and PE-labeled anti-IgG4 antibodies. […] The number of CD3+/IgG4+ cells was determined for each parameter and the percentage of occupancy for the exemplary anti-PD-1 antibody was determined as follows: […]

[3] = biological target: T2, full length native human PD-1 (on stably transfected CHO-K1 cells; native on human PBMCs) (human, UniProt Q15116 25-288); assay: receptor occupancy by flow cytometry on human PBMCs (CD3+/IgG4+ cells, PE-labeled anti-IgG4), pre-incubation with a dilution series of the antibody [panel Human]
T2 construct: whole, on cells; The same entry is used for the CHO-K1 transfectants and for PD-1 natively expressed on human PBMCs; also called cell-surface human PD-1; human PD-1 CHO-K1 cells
Text: as §2, §3

[4] = biological target: T2, full length native human PD-1 (on …); assay: flow cytometry competition on human PD-1 CHO-K1 cells; competitor PD-L1-mFc-DyL650
Description: (§4) In these studies, human PD-L1 and PD-L2 mouse IgG1 Fc fusion proteins were expressed, purified, and labeled with DyL650. The dose-response of binding of both PD-L1 and PD-L2 to PD-1 CHO-K1 cells was determined. To quantify blocking of ligand binding to PD-1 CHO-K1 cells, exemplary anti-PD-1 antibody or IgG4 control antibody in a 3-fold dilution series was pre-mixed with PD-L1-mFc-DyL650 or PD-L2-mFc-DyL650. The mixture was added to human PD-1 CHO-K1 cells (3E5 cells) and incubated at 4° C. Cells were washed once and re-suspended in the presence of propidium iodide and DyL650-PD-L1 or DyL650-PD-L2. Binding was analyzed on a BD FACSArray (BD Bioscience), excluding dead cells.

[5] = biological target: T3, dimeric cynomolgus monkey PD-1 fusion protein (fused with mouse IgG2a Fc) (cynomolgus monkey; mouse, UniProt B0LAJ3 25-170); assay: SPR (Biacore T200); cynomolgus monkey against human PD-1 fusion
T3 construct: Soluble dimeric analyte in SPR; also called cynomolgus PD-1; soluble PD-1 fusion
Description: (§5) SPR analyses were carried out using a Biacore T200 system and kinetic constants were determined using Biacore T200 Evaluation software. […] GE anti-human IgG (Fc-specific) was immobilized on a Biacore CM5 chip. An exemplary anti-PD-1 antibody (having heavy and light chains as set forth in SEQ ID NOs: 1 & 2, respectively) was then captured onto this surface […]. Next, dimeric human or cynomolgus monkey PD-1 fusion proteins (fused with mouse IgG2a Fc) in a two-fold serial dilution series were flowed over the captured exemplary antibody and dissociation was monitored. Capture and analyte binding were performed in HBS-EP+ buffer. Chips were regenerated between each run using 3 M MgCl₂. The resulting sensorgrams were fitted globally using a 1:1 binding model to calculate on- and off-rates (kassoc and kdissoc, respectively) and dissociation constants as a measure of overall affinity (KD).

[6] = biological target: T2, full length native human PD-1 (on …); assay: flow cytometry on CHO-K1 cells stably expressing full length human PD-1; PE anti-human IgG4 detection
Description: as §1

[7] = biological target: T4, dimeric human PD-1 fusion protein (fused with mouse IgG2a Fc) (human; mouse, UniProt Q15116 25-167, limits assumed); assay: SPR (Biacore T200); antibody captured on anti-human IgG Fc chip, dimeric PD-1-mouse IgG2a Fc as analyte, 1:1 model
T4 construct: Soluble dimeric analyte in SPR; also called soluble PD-1 fusion; not shown: mouse IgG2a Fc
Description: as §5

[8] = biological target: T3, dimeric cynomolgus monkey PD-1 fusion …; assay: as above
Description: as §5

[9] = biological target: T2, full length native human PD-1 (on …); assay: flow cytometry competition on human PD-1 CHO-K1 cells; competitor PD-L2-mFc-DyL650
Description: as §4

T4 sequence (Q15116 25-167 limits assumed): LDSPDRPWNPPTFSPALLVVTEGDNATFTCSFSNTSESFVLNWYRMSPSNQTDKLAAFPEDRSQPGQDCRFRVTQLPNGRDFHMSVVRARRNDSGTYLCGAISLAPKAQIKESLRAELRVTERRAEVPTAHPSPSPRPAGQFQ
T3 sequence (B0LAJ3 entry or part of it limits assumed): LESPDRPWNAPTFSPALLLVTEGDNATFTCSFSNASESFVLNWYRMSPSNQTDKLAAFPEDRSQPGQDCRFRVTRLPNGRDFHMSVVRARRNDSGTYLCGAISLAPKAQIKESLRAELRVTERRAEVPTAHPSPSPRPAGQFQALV
T2 sequence (Q15116 25-288): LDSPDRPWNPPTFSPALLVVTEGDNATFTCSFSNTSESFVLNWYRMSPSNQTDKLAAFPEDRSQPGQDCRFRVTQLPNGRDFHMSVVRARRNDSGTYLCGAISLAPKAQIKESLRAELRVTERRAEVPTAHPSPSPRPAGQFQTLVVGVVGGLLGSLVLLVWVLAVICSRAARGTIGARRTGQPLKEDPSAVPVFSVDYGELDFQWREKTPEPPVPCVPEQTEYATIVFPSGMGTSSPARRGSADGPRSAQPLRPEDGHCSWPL
T1 sequence (B0LAJ3 entry or part of it limits assumed): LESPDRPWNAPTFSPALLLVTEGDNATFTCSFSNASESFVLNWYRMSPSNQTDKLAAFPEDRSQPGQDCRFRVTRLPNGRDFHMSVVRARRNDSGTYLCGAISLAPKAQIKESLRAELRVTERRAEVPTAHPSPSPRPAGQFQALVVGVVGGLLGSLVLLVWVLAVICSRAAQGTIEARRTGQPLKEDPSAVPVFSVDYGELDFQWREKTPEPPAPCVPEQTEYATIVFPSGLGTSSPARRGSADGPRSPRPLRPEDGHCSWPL

B1: exemplary anti-PD-1 antibody (having heavy and light chains as set forth in SEQ ID NOs: 1 & 2, respectively) (antibody, human IgG4 S228P, kappa, V domains shown)
VH: EVQLLESGGGLVQPGGSLRLSCAASGFTFSSYDMSWVRQAPGKGLEWVSTISGGGSYTYYQDSVKGRFTISRDNSKNTLYLQMNSLRAEDTAVYYCASPYYAMDYWGQGTTVTVSS
VL: DIQLTQSPSFLSAYVGDRVTITCKASQDVGTAVAWYQQKPGKAPKLLIYWASTLHTGVPSRFSGSGSGTEFTLTISSLQPEDFATYYCQHYSSYPWTFGQGTKLEIKR
modifications: occupied N-glycosylation site at asparagine residue 293 of SEQ ID NO:1
notes: Humanized IgG4 (human IGHG4*01) with kappa light chain (IGKC*01); also called exemplary humanized monoclonal anti-PD-1 antibody; anti-PD-1 mAb
In the case of B1, the EC50 [1] is reported as 3.4 nM, the “EC50 (read off the curve)” value [2] is reported as roughly 0.1 µg/mL and the “EC50 (read off the curve)” value [3] is reported as roughly 0.2 µg/mL. The IC50 [4] was 1.8 nM, the “fold difference in KD against human PD-1” value [5] was less than 2 fold and the EC50 [6] was 2 nM. For the same binder, the Kd [7] was 0.3 nM, the koff [7] was 0.00017 s⁻¹ and the kon [7] was 570000 M⁻¹ s⁻¹. For the same binder, the Kd [8] was 0.53 nM, the koff [8] was 0.00023 s⁻¹ and the kon [8] was 430000 M⁻¹ s⁻¹. For the same binder, the IC50 [9] was 1.5 nM.
